Measurements as given in article PMC6127865.

Biological target: T1, HisMBP-CDX2ΔCTD R214N (UniProt Q99626 1-245, R214N)
T1 sequence: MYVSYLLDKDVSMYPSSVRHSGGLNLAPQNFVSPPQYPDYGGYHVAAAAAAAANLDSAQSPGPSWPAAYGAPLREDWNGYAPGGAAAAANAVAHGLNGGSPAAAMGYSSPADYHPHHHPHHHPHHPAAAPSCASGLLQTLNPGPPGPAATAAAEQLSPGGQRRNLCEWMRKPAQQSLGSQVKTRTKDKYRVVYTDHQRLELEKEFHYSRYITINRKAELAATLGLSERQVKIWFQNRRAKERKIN
Assay: EMSA

B1: TP5921/TP5922 CDX2 consensus site duplex (dsDNA)
DNA 1: TAATCTCTCTGTTTATAGCTCTGACCT
DNA 2: AGGTCAGAGCTATAAACAGAGAGATTA
binding result: no binding
